IC50 data for three molecules are collected here from publication PMC7020397 (Toxins, 2020).

Ends that are not written are not given here.

Assay [1] has as its target muscle-type Torpedo nAChR (Torpedo). Briefly: competition with α-bungarotoxin.
The target of another assay is human neuronal α7 nAChR (human, UniProt P36544 23-502). The assay can be described thus: competition with α-bungarotoxin.
Chain of human neuronal α7 nAChR (P36544 23-502): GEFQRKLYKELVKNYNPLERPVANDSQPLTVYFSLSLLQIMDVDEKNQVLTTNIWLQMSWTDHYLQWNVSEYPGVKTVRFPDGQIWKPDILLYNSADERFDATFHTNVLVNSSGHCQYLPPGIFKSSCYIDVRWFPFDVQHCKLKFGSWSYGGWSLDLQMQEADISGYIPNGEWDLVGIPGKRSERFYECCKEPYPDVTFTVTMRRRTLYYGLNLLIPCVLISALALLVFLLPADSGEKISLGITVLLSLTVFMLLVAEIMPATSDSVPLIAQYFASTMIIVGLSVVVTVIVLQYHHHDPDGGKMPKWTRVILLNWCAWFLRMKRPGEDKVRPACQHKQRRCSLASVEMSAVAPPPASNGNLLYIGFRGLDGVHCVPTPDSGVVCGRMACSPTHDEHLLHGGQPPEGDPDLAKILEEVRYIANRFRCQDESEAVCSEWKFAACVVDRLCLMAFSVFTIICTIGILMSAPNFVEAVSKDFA

Chain of muscle-type Torpedo nAChR (Torpedo) (P02710 25-461 limits assumed, chain 1 of 4): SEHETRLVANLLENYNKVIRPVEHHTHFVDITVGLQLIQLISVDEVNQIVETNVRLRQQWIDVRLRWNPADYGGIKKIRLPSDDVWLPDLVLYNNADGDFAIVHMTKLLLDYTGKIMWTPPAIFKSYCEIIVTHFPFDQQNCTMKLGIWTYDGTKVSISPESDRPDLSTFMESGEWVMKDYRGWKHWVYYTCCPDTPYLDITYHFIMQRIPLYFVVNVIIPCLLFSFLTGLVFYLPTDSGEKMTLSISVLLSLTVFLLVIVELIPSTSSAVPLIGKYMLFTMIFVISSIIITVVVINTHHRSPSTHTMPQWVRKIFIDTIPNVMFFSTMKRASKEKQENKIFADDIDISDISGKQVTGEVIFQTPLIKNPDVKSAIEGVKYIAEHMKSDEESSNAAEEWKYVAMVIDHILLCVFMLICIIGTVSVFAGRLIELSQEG
Chain of muscle-type Torpedo nAChR (Torpedo) (P02712 25-493 limits assumed, chain 2 of 4, further chain): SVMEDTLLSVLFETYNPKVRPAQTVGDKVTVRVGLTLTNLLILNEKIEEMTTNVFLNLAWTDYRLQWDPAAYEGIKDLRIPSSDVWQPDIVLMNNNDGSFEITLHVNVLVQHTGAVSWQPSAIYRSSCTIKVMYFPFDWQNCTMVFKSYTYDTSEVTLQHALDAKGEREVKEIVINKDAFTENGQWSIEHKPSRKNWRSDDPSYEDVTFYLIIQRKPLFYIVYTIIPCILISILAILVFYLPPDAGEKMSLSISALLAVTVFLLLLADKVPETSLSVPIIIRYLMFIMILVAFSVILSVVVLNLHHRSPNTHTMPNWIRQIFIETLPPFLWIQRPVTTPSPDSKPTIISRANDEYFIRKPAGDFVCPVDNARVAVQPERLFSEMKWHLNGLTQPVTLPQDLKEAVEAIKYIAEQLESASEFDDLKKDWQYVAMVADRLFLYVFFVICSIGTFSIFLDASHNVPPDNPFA
Chain of muscle-type Torpedo nAChR (Torpedo) (P02714 18-506 limits assumed, chain 3 of 4, further chain): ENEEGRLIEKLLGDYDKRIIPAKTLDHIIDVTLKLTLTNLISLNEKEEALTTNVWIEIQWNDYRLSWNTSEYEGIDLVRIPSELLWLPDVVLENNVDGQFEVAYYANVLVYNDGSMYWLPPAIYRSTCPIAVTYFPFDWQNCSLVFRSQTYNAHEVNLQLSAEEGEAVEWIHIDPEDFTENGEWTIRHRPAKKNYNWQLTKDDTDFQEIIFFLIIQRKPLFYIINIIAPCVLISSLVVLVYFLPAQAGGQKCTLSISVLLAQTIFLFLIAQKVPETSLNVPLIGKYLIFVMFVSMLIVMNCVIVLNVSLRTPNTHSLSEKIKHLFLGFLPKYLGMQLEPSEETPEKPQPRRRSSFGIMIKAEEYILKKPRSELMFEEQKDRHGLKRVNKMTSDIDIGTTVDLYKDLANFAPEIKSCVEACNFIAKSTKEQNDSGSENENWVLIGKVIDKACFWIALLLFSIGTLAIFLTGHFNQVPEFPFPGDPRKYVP
Chain of muscle-type Torpedo nAChR (Torpedo) (P02718 22-522 limits assumed, chain 4 of 4, further chain): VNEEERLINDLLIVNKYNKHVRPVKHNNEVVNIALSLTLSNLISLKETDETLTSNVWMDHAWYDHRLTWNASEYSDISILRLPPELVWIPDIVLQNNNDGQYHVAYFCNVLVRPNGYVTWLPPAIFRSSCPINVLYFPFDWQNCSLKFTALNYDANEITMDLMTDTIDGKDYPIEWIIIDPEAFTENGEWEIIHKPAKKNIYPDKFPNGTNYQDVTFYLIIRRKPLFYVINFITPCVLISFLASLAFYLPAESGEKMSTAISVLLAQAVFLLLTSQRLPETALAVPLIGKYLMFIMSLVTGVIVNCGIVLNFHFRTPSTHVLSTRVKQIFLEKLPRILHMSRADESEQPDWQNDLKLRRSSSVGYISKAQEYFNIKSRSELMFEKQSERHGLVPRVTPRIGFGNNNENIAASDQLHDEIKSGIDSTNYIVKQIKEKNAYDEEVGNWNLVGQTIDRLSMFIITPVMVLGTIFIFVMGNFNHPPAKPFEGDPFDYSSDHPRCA

What is called IC50 is the concentration at which inhibition is half-maximal. A lower IC50 goes with inhibition by little substance. For the molecule “OSK-1 (from UniProt P55896 1-38) (peptide)”, the IC50 in assay [1] was found to be 500 nM.
As to “spinoxin (from UniProt P84094 1-34) (peptide)”, the IC50 in assay [1] worked out at 500 nM.

B1: azemiopsin (peptide)
chain: DNWWPKPPHQGPRPPRPRPKP
modifications: not fully specified
notes: source: synthetic peptide
Consider B1, for which the IC50 in assay [1] worked out at 180 nM; in the assay with human neuronal α7 nAChR, 22 µM.
